Laboratory results taken from patent US20250026813A1 (published 2025).
Residue numbers refer to the chain shown, from its start.

B1: YANG-2205 (antibody, V domains shown)
VH: QIQLVQSGAEVKKPGASVKFSCKTSGYTFTSYYMVWVRQAPGQGLEWMGIIKPSGGNTIYAQKFQGRVTMTRDTSTNTVYMDLSSLRSEDTAVYYCARTGDRAFDVWGHGTMITVSS
VL: QSVLTQPPSVSAAPGQKVTISCSGSSSNIGNNFVSWYQQFPGTAPKLLIYDNNKRPSGIPDRFSGSKSGTSATLGITGLQTGDEADYYCGTWDSSLGAGVFGGGTKLTVL
B2: YANG-2208 (antibody, V domains shown)
VH: B1 VH with K12R, K19R, T28I, S31N, S84N, S85N, Y95F, H109Q, I113V
VL: B1 VL with V10M, S25N, Q38R, G97S
B3: YANG-2206 (antibody, V domains shown)
VH: B1 VH with F20L, Y60F, S84N, I113V
VL: B1 VL with F33Y, L107V
B4: YANG-2207 (antibody, V domains shown)
VH: B1 VH with I2M, F20I, S31N, M81L, D101N, I113V
VL: B1 VL
B5: IMPI-029 (antibody, V domains shown)
VH: EVQLVESGGGLIQPGGSLRLSCAASGVTVSSNYMNWVRQAPGKGLEWVSVIYSGGSTYYADSVKGRFTISRDNSKNTLFLQMNSLRAEDSAVYYCARDLGPYGVDVWGQGTTVTVSS
VL: DIQLTQSPSFLSASVGDRVTITCWASQGISSYLAWYQQKPGKAPKLLIYAASTLQSGVPSRFSGSGSGTEFTLTISSLQPEDFATYYCQELNSYPLTFGQGTRLEIK
B6: IMPI-005 (antibody, V domains shown)
VH: B5 VH with V27F
VL: B5 VL
B7: IMPI-060 (antibody, V domains shown)
VH: B5 VH with N35S, Y58F, F79Y, S90T, G100S, P101Y, V104M
VL: B5 VL with R61K, E90Q, L96S, T97S, R103K
B8: IMPI-021 (antibody, V domains shown)
VH: B5 VH with N35S, Y58F, F79Y, S90T, G100S, P101Y, V104M
VL: B5 VL with R61K, E90Q, L96C, T97S, R103K
B9: YANG-2305 (antibody, V domains shown)
VH: QVQLVESGGGVVQPGRSLRLSCAASGFTFSSYGMHWVRQAPGKGLEWVAIIWYDGSKKYYADSVKGRFTISRDNSKNTLNLQMNSLRAEDTAVYYCAREEDIVASGGLYYNFNGMDVWGQGTTVTVSS
VL: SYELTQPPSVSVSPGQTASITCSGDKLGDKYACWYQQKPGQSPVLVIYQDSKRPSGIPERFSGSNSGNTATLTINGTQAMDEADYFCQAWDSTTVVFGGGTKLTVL
B10: YANG-2301 (antibody, V domains shown)
VH: QVHLIQSGAEVKKPGASVKVSCKVSGYTLIEVSVHWVRQAPGKGLEWMGGFDPEAAETIYAQKFQGRVTMTEDTSTDTAYMDLSSLKSEDSAVYYCAIGPAVTGRNSGEYYYYYGMDVWGQGTTVTVAS
VL: EIVMTQSPATLSVSPGERATLSCRASQSVNSNLAWYQQKPGQAPRLLIYAVSTRATGLPARFSGSGSGTEFTLTISSLQSEDFVVYYCHQYNNWPLTFGGGTKVEIK
B11: IMPI-028 (antibody, V domains shown)
VH: EVQLVESGGGLIQPGGSLRLSCAASGFTVSSNYMSWVRQAPGKGLEWVSVIYSGGSTYYADSVKGRFTISRDNSKNTLYLQMNSLRAEDTAVYYCARDYGDLYFDYWGQGTLVTVSS
VL: EIVLTQSPGTLSLSPGERATLSCRASQSISSYLAWYQQKPGQAPRLLIYGASSRATGIPDKFSGSGSGTDFTLTISRLEPEDFAVYYCQQYGSSPRTFGQGTKVEIK
B12: YANG-2303 (antibody, V domains shown)
VH: QVQLVQSGAEVKKPGASVRVSCKVSGYTLPELAIHWVRQAPGKGLEWMGGFDPEDGETIYAQKFQGRVIMTEDTSTDTAYMDLSSLRSEDTAVYYCVKTWAAPGYNYGLDTWGQGTTVTVSS
VL: EIVLTQSPGILSLSPGESATLSCRASQSIASNYLAWFQQKPGQAPRLLIYGASSRAAGFPDRFSGSGSGTDFTLTIKRLEPEDSAVYYCQHYGSSPCSFGQGTNLEIK
B13: IMPI-067 (antibody, V domains shown)
VH: QVQLVESGGGVVQPGTSLRLSCAASGFTFNSFGMHWVRQAPGKGLEWVAVISYDGSSKYYADSVKGRFTISRDNSKNTLYLQMNSLRAEDTAVYYCAKDEGDYDDYYYGMDVWGQGTTVTVSS
VL: EIVLTQSPGSLSLSPGERATLSCRASQSLSSRYLAWYHQKPGQAPRLLIYGASSRATGIPDRFSGSGSGTDFTLTISGLEPEDFAVYYCQQYGNSITFGGGTKVEIK
B14: IMPI-038 (antibody, V domains shown)
VH: B13 VH with T16R, N30S, F32Y, S57D, D99T, E100V, G101A, D102G, D104Y, D105Y
VL: DIQMTQSPSSVSASVGDRVTVTCRASQDISSWLAWFQQKPGKAPKFLIYDASNLENGVPSRFSGSGSGTDFTLTISSLQPEDFATYYCQQAKSFPWTFGQGTKVEIN
B15: YANG-2302 (antibody, V domains shown)
VH: QVQLVQSGAEVRKPGASVKVSCKVSGYTLPELAIHWVRQAPGKGLEWMGGFIPEDGDTIYAQKFQGRVTMTEDTSTDTAYMDLTSLRSEDAAVYYCTSGWAAPGYNYGMAVWGQGTTVTVSS
VL: EVVLTQSPGTLSLSSGERATLSCRASQSVSSNYLAWYQKKPGQAPRLLIYGASSRVTGIPDRFGGSGSGTDFTLTISRLEPEDFAVYYCQQYDASPYSFGQGTKLDIK
B16: YANG-2304 (antibody, V domains shown)
VH: QVQLVQSGTEVKKPGASVKVSCKVSGYTLPELAIHWVRQAPGKGLEWMGTFDPEDGETICAQKFQGRVTMTEDTSTDTAYMDLSSLRSEDTAVYYCATTSIIAARWWFDPWGQGTLVTVSS
VL: QSALTQPPSASGSPGQSVTISCTGTSSDVGGYDYVSWYQQHPGKAPKLMIYEVSKRPSGVPDRFSGSKSGNTASLTVSGLQAEDEADYYCSSFAGSNNVVFGGGAKLTVL
B17: YANG-2306 (antibody, V domains shown)
VH: QVQLVQSGAEVKKPGASVKVSCKVSGYTLPEISIHWVRQAPGKGLEWMGGFDPEDGETIYAQKFQGRVIMTEDTSTDTAYMDLSSLRSEDTAVYFCAAAPAIASASTFWLDPWGQGTLVTVST
VL: B16 VL with D33N, S54T, G70D, F93Y, V99L, A105T
B18: IMPI-024 (antibody, V domains shown)
VH: EVQLVQSGAEVKKPGESLKISCKGSGYSFTSYWIGWVRQMPGKGLEWMGIIYPGDSDTRYSPSFQGQVTISADKSISTAYLQWSSLKASDTAMYYCVRSYNWNYFDYWGQGTLVTVSS
VL: AIQLTQSPSSLSASVGDRVTITCRASQGISSGLAWYQQKAGKAPKLLIYDVSSLESGVPSRFSGSGSGTDFTLTISSLQPEDFATYYCQQFLSYPWTFGQGTKVEIK
B19: IMPI-068 (antibody, V domains shown)
VH: QVQLVESGGDVVQPGRSLRLSCAASGFTFSRYGMHWVRQAPGKGLEWVAVISYDGSDKYYADSVKGRFTISRDNSKNTLYLQMNSLRAEDTAVYYCAKQLPLYYYYYGMDVWGQGTTVTVSS
VL: B18 VL with G32A, A40P, K45N, V51A, L92N, S93I, W96H, Q100P, E105D
B20: IMPI-013 (antibody, V domains shown)
VH: EVQLVESGGGLVQPGRSLRLSCAASGFTFDDYAMHWVRQTPGKGLEWVSGISWNSGSIGYADSVKGRFTISRDNAKNSLYLQMNSLRAEDTALYYCTKDLGLGIGFYYGLDVWGQGTTVTVSS
VL: AIQMTQSPSSLSTSVGDRVTITCRASQGIRNDLGWYQLKPGKAPKLLIYDASTLQSGVPSRFSGSGSGTDFTLTISSLEPEDLATYYCLHHYTYPWTFGHGTKVELK
B21: IMPI-004 (antibody, V domains shown)
VH: QVQLVESGGGVVQPGRSLRLSCAASGFTFSSYGMHWVRQAPGKGLEWVAVIWYDGGNKYYADSVKGRFTISRDNSKNTLYLQMNSLRAEDTAVYYCARVNVLMGYGMDVWGQGTTVTVSS
VL: EIVLTQSPGTLSLSPGDKATLSCRASQSIISSFLAWYQQKPGQAPRLLIYGASSRATGIPDRFSGSGSGTDFTLTISRLEPEDFAVYYCQQYGSSLTFGGGTKVEIK
B22: IMPI-054 (antibody, V domains shown)
VH: EVQLVESGGGLIQPGGSLRLSCAASGLTVSSNYMSWVRQAPGKGLEWVSIIYSGGSTYYADSVKGRFTISRDNSKNTLYLQMNSLRAEDTAVYYCARLGGYYYYGMDVWGQGTTVTVSS
VL: DIQMTQSPSSLSASVGERVTITCQASQDIRNYLNWYQKKPGKAPKLLIYDSSNLETGVPSRFSGSGSGTDFTFTISSLQPEDIATYYCQQYDNLPITFGQGTRLEIK
B23: IMPI-042 (antibody, V domains shown)
VH: B22 VH
VL: B22 VL with S65G

Assays:
[1] = target: SARS-CoV-2 spike protein bearing furin mutation and truncation in retention sequence, presented in t (SARS-CoV-2, UniProt P0DTC2 14-1273); test: cell-based or functional assay
[2] = target: T1, S1 subunit of the SARS-CoV-2 spike protein (Sino Biological 40591-V08H), His tag (SARS-CoV-2, UniProt P0DTC2 16-685)
T1 construct: domain: S1 subunit

[3] = target: full-length stabilised spike trimer protein of SARS-CoV-2 virus (in-house, soluble ECD with trimeris (SARS-CoV-2, UniProt P0DTC2 14-1208; P10104 458-484)

Row | Binder | PV neutralisation IC50 [1] [nM] | PV neutralization % (Ab 1 ug/mL) [1] [%] | HTRF deltaF [2] [deltaF] | HTRF deltaF [3] [deltaF]
1 | B1 | 3.35 | 47.5 |  | 
2 | B2 | 4.68 | 38.2 |  | 
3 | B3 | 3.96 | 42 |  | 
4 | B4 | 2.59 | 57.8 |  | 
5 | B5 |  |  | 3050 | 1700
6 | B6 |  |  | 1510 | 1360
7 | B7 |  |  | 378 | 488
8 | B8 |  |  | 1280 | 962
9 | B9 | 0.57 | 64.4 |  | 
10 | B10 | 0.53 | 56.4 |  | 
11 | B11 |  |  |  | 480
12 | B12 | 0.48 | 58.6 |  | 
13 | B13 |  |  |  | 963
14 | B14 |  |  |  | 1310
15 | B15 | 0.61 | 52.2 |  | 
16 | B16 | 0.74 | 52.8 |  | 
17 | B17 | 0.43 | 60.4 |  | 
18 | B18 |  |  | 799 | 1460
19 | B19 |  |  |  | 1600
20 | B20 |  |  |  | 1420
21 | B21 |  |  |  | 952
22 | B22 |  |  | 772 | 563
23 | B23 |  |  | 617 | 926
